The text below walks through data of paper PMC9789309.

As usually defined, the Kd is the equilibrium constant for the complex coming apart.

Assay [1] has as its target ACE2, membrane-anchored, endogenously expressed on VeroE6 cells (African green monkey (endogenous in VeroE6)). Briefly: single-molecule force spectroscopy (AFM).
The target is the same in assay [2]. Briefly: single-molecule force spectroscopy (AFM) + kinetic model.

Consider “SARS-CoV-2 Delta variant RBD monomer (from UniProt P0DTC2) (domain or fragment)”, for which the Kd in assay [1] was 0.97 nM.
On to “SARS-CoV-2 Delta variant Spike trimer (from UniProt P0DTC2) (natural protein)”, for which, in assay [2], the bond lifetime at 20 pN (calculated) was 460 s and the bond lifetime at zero force (calculated) was 42000 s. In assay [1], this substance came in with a dissociation constant (Kd) of 0.5 nM, an on-rate of three bonds of 23 s⁻¹, an on-rate of two bonds of 80 s⁻¹ and a percentage of one bond of 68.7%.
With “SARS-CoV-2 Omicron (B.1.1.529) variant RBD monomer (from UniProt P0DTC2) (domain or fragment)”, the Kd in assay [1] was found to be 0.068 nM.
As to “SARS-CoV-2 Omicron (B.1.1.529) variant Spike trimer (from UniProt P0DTC2) (natural protein)”, in assay [2], the bond lifetime at 20 pN (calculated) was 960 s and the bond lifetime at zero force (calculated) is 370000 s. In assay [1], the equilibrium dissociation constant (Kd) stood at 0.055 nM, the on-rate of two bonds amounted to 49 s⁻¹, the percentage of one bond was 85.4% and the percentage of three bonds was determined as 1%. The substance further registered a percentage of two bonds in assay [1] of 13.6%.
